The source of these data is paper PMC9715652, “Structural insights into mechanism and specificity of the plant protein O-fucosyltransferase SPINDLY” (Nature Communications, 2022).

The nature of data set [1]: in vitro fucosylation of DELLA1–205, AAL lectin blot. The note with it: glycan lost; control: wild type SPY.
Data set [2] concerns the molecule itself. The data set can be described thus: SEC; Superdex 200 Increase 10/300 GL, 0.5 mL injected; 50 mM Tris pH 7.9, 300 mM NaCl, 0.5 mM TCEP, 2 mM benzamidine; samples incubated at 4 °C for 6 h; peak fractions on SDS-PAGE. In general terms: SEC sorts molecules by how far they enter the pores of the column.
Data set [3] concerns the molecule itself. Kind of data set: SEC-MALS; ~500 μg loaded on Superdex 200 increase 10/300 connected to a HELEOS multi-angle light scattering instrument; 20 mM Tris pH 7.9, 300 mM NaCl, 0.5 mM TCEP.
The nature of a further data set: gel filtration. The conditions noted are these: glycan gained; control: wild type unmodified SPY.

B1: SPINDLY (SPY): S21A (protein)
parent chain: MVGLEDDTERERSPVVENGFSNGSRSSSSSAGVLSPSRKVTQGNDTLSYANILRARNKFADALALYEAMLEKDSKNVEAHIGKGICLQTQNKGNLAFDCFSEAIRLDPHNACALTHCGILHKEEGRLVEAAESYQKALMADASYKPAAECLAIVLTDLGTSLKLAGNTQEGIQKYYEALKIDPHYAPAYYNLGVVYSEMMQYDNALSCYEKAALERPMYAEAYCNMGVIYKNRGDLEMAITCYERCLAVSPNFEIAKNNMAIALTDLGTKVKLEGDVTQGVAYYKKALYYNWHYADAMYNLGVAYGEMLKFDMAIVFYELAFHFNPHCAEACNNLGVLYKDRDNLDKAVECYQMALSIKPNFAQSLNNLGVVYTVQGKMDAAASMIEKAILANPTYAEAFNNLGVLYRDAGNITMAIDAYEECLKIDPDSRNAGQNRLLAMNYINEGLDDKLFEAHRDWGWRFTRLHPQYTSWDNLKDPERPITIGYISPDFFTHSVSYFIEAPLTHHDYTKYKVVVYSAVVKADAKTYRFRDKVLKKGGVWKDIYGIDEKKIASMVREDKIDILVELTGHTANNKLGTMACRPAPVQVTWIGYPNTTGLPTVDYRITDSLADPPDTKQKQVEELVRLPDCFLCYTPSPEAGPVCPTPALSNGFVTFGSFNNLAKITPKVLQVWARILCAVPNSRLVVKCKPFCCDSIRQRFLTTLEQLGLESKRVDLLPLILFNHDHMQAYSLMDISLDTFPYAGTTTTCESLYMGVPCVTMAGSVHAHNVGVSLLTKVGLGHLVAKNEDEYVQLSVDLASDVTALSKLRMSLRDLMAGSPVCNGPSFAVGLESAYRNMWKKYCKGEVPSLRRMEMLQKEVHDDPLISKDLGPSRVSVTGEATPSLKANGSAPVPSSLPTQSPQLSKRMDSTS
For B1, in data set [1], the enzymatic_activity result was “no change”.

B2: SPINDLY (SPY): S24A (protein)
parent chain: MVGLEDDTERERSPVVENGFSNGSRSSSSSAGVLSPSRKVTQGNDTLSYANILRARNKFADALALYEAMLEKDSKNVEAHIGKGICLQTQNKGNLAFDCFSEAIRLDPHNACALTHCGILHKEEGRLVEAAESYQKALMADASYKPAAECLAIVLTDLGTSLKLAGNTQEGIQKYYEALKIDPHYAPAYYNLGVVYSEMMQYDNALSCYEKAALERPMYAEAYCNMGVIYKNRGDLEMAITCYERCLAVSPNFEIAKNNMAIALTDLGTKVKLEGDVTQGVAYYKKALYYNWHYADAMYNLGVAYGEMLKFDMAIVFYELAFHFNPHCAEACNNLGVLYKDRDNLDKAVECYQMALSIKPNFAQSLNNLGVVYTVQGKMDAAASMIEKAILANPTYAEAFNNLGVLYRDAGNITMAIDAYEECLKIDPDSRNAGQNRLLAMNYINEGLDDKLFEAHRDWGWRFTRLHPQYTSWDNLKDPERPITIGYISPDFFTHSVSYFIEAPLTHHDYTKYKVVVYSAVVKADAKTYRFRDKVLKKGGVWKDIYGIDEKKIASMVREDKIDILVELTGHTANNKLGTMACRPAPVQVTWIGYPNTTGLPTVDYRITDSLADPPDTKQKQVEELVRLPDCFLCYTPSPEAGPVCPTPALSNGFVTFGSFNNLAKITPKVLQVWARILCAVPNSRLVVKCKPFCCDSIRQRFLTTLEQLGLESKRVDLLPLILFNHDHMQAYSLMDISLDTFPYAGTTTTCESLYMGVPCVTMAGSVHAHNVGVSLLTKVGLGHLVAKNEDEYVQLSVDLASDVTALSKLRMSLRDLMAGSPVCNGPSFAVGLESAYRNMWKKYCKGEVPSLRRMEMLQKEVHDDPLISKDLGPSRVSVTGEATPSLKANGSAPVPSSLPTQSPQLSKRMDSTS
Regarding B2, in data set [1], the enzymatic_activity result is “no change”.

B3: self-fucosylated SPY (enzyme, Arabidopsis thaliana, UniProt Q96301 1-914, looked up)
chain: MVGLEDDTERERSPVVENGFSNGSRSSSSSAGVLSPSRKVTQGNDTLSYANILRARNKFADALALYEAMLEKDSKNVEAHIGKGICLQTQNKGNLAFDCFSEAIRLDPHNACALTHCGILHKEEGRLVEAAESYQKALMADASYKPAAECLAIVLTDLGTSLKLAGNTQEGIQKYYEALKIDPHYAPAYYNLGVVYSEMMQYDNALSCYEKAALERPMYAEAYCNMGVIYKNRGDLEMAITCYERCLAVSPNFEIAKNNMAIALTDLGTKVKLEGDVTQGVAYYKKALYYNWHYADAMYNLGVAYGEMLKFDMAIVFYELAFHFNPHCAEACNNLGVLYKDRDNLDKAVECYQMALSIKPNFAQSLNNLGVVYTVQGKMDAAASMIEKAILANPTYAEAFNNLGVLYRDAGNITMAIDAYEECLKIDPDSRNAGQNRLLAMNYINEGLDDKLFEAHRDWGWRFTRLHPQYTSWDNLKDPERPITIGYISPDFFTHSVSYFIEAPLTHHDYTKYKVVVYSAVVKADAKTYRFRDKVLKKGGVWKDIYGIDEKKIASMVREDKIDILVELTGHTANNKLGTMACRPAPVQVTWIGYPNTTGLPTVDYRITDSLADPPDTKQKQVEELVRLPDCFLCYTPSPEAGPVCPTPALSNGFVTFGSFNNLAKITPKVLQVWARILCAVPNSRLVVKCKPFCCDSIRQRFLTTLEQLGLESKRVDLLPLILFNHDHMQAYSLMDISLDTFPYAGTTTTCESLYMGVPCVTMAGSVHAHNVGVSLLTKVGLGHLVAKNEDEYVQLSVDLASDVTALSKLRMSLRDLMAGSPVCNGPSFAVGLESAYRNMWKKYCKGEVPSLRRMEMLQKEVHDDPLISKDLGPSRVSVTGEATPSLKANGSAPVPSSLPTQSPQLSKRMDSTS
modifications: O-fucose by self-fucosylation (major sites S21 and S24 by the paper's mutagenesis)
notes: SPINDLY (SPY), Arabidopsis thaliana, At3g11540, self-fucosylated sample run on gel filtration; Fucosylation of the sample was checked by western blotting with biotinylated AAL; also called SPY with fucosylation modification; source: E. coli BL21 (DE3), purified; self-fucosylated sample; not shown: His6, N-terminal, cleaved; SUMO, N-terminal, cleaved
As to B3, the stoichiometry N (as a rule, a count of units in the complex or per binding partner) in data set [2] was found to be 2.

B4: engineered Arabidopsis SPY^C645S (enzyme, Arabidopsis thaliana, UniProt Q96301 1-914, looked up)
chain: MVGLEDDTERERSPVVENGFSNGSRSSSSSAGVLSPSRKVTQGNDTLSYANILRARNKFADALALYEAMLEKDSKNVEAHIGKGICLQTQNKGNLAFDCFSEAIRLDPHNACALTHCGILHKEEGRLVEAAESYQKALMADASYKPAAECLAIVLTDLGTSLKLAGNTQEGIQKYYEALKIDPHYAPAYYNLGVVYSEMMQYDNALSCYEKAALERPMYAEAYCNMGVIYKNRGDLEMAITCYERCLAVSPNFEIAKNNMAIALTDLGTKVKLEGDVTQGVAYYKKALYYNWHYADAMYNLGVAYGEMLKFDMAIVFYELAFHFNPHCAEACNNLGVLYKDRDNLDKAVECYQMALSIKPNFAQSLNNLGVVYTVQGKMDAAASMIEKAILANPTYAEAFNNLGVLYRDAGNITMAIDAYEECLKIDPDSRNAGQNRLLAMNYINEGLDDKLFEAHRDWGWRFTRLHPQYTSWDNLKDPERPITIGYISPDFFTHSVSYFIEAPLTHHDYTKYKVVVYSAVVKADAKTYRFRDKVLKKGGVWKDIYGIDEKKIASMVREDKIDILVELTGHTANNKLGTMACRPAPVQVTWIGYPNTTGLPTVDYRITDSLADPPDTKQKQVEELVRLPDCFLCYTPSPEAGPVSPTPALSNGFVTFGSFNNLAKITPKVLQVWARILCAVPNSRLVVKCKPFCCDSIRQRFLTTLEQLGLESKRVDLLPLILFNHDHMQAYSLMDISLDTFPYAGTTTTCESLYMGVPCVTMAGSVHAHNVGVSLLTKVGLGHLVAKNEDEYVQLSVDLASDVTALSKLRMSLRDLMAGSPVCNGPSFAVGLESAYRNMWKKYCKGEVPSLRRMEMLQKEVHDDPLISKDLGPSRVSVTGEATPSLKANGSAPVPSSLPTQSPQLSKRMDSTS
notes: SPINDLY (SPY), Arabidopsis thaliana, At3g11540, full-length with C645S; Crystallised with GDP; residues 848-914 and most of 1-43 are invisible in the structure; also called SPY (in the SPY/GDP complex structure); catalytic SPY; not shown: His6, N-terminal, cleaved; SUMO, N-terminal, cleaved
As for B4, the “stoichiometry N” value in data set [3] is 2.

B5: Arabidopsis SPINDLY (SPY), wild type, full-length (enzyme, Arabidopsis thaliana, UniProt Q96301 1-914, looked up)
chain: MVGLEDDTERERSPVVENGFSNGSRSSSSSAGVLSPSRKVTQGNDTLSYANILRARNKFADALALYEAMLEKDSKNVEAHIGKGICLQTQNKGNLAFDCFSEAIRLDPHNACALTHCGILHKEEGRLVEAAESYQKALMADASYKPAAECLAIVLTDLGTSLKLAGNTQEGIQKYYEALKIDPHYAPAYYNLGVVYSEMMQYDNALSCYEKAALERPMYAEAYCNMGVIYKNRGDLEMAITCYERCLAVSPNFEIAKNNMAIALTDLGTKVKLEGDVTQGVAYYKKALYYNWHYADAMYNLGVAYGEMLKFDMAIVFYELAFHFNPHCAEACNNLGVLYKDRDNLDKAVECYQMALSIKPNFAQSLNNLGVVYTVQGKMDAAASMIEKAILANPTYAEAFNNLGVLYRDAGNITMAIDAYEECLKIDPDSRNAGQNRLLAMNYINEGLDDKLFEAHRDWGWRFTRLHPQYTSWDNLKDPERPITIGYISPDFFTHSVSYFIEAPLTHHDYTKYKVVVYSAVVKADAKTYRFRDKVLKKGGVWKDIYGIDEKKIASMVREDKIDILVELTGHTANNKLGTMACRPAPVQVTWIGYPNTTGLPTVDYRITDSLADPPDTKQKQVEELVRLPDCFLCYTPSPEAGPVCPTPALSNGFVTFGSFNNLAKITPKVLQVWARILCAVPNSRLVVKCKPFCCDSIRQRFLTTLEQLGLESKRVDLLPLILFNHDHMQAYSLMDISLDTFPYAGTTTTCESLYMGVPCVTMAGSVHAHNVGVSLLTKVGLGHLVAKNEDEYVQLSVDLASDVTALSKLRMSLRDLMAGSPVCNGPSFAVGLESAYRNMWKKYCKGEVPSLRRMEMLQKEVHDDPLISKDLGPSRVSVTGEATPSLKANGSAPVPSSLPTQSPQLSKRMDSTS
notes: Dimer in solution by SEC-MALS; also called wild type SPY; SPY^WT; not shown: His6, N-terminal, cleaved; SUMO, N-terminal, cleaved
Take B5: the “stoichiometry N” value in data set [3] was 2.

B6: SPINDLY (SPY): self-fucosylated SPY (protein)
parent chain: MVGLEDDTERERSPVVENGFSNGSRSSSSSAGVLSPSRKVTQGNDTLSYANILRARNKFADALALYEAMLEKDSKNVEAHIGKGICLQTQNKGNLAFDCFSEAIRLDPHNACALTHCGILHKEEGRLVEAAESYQKALMADASYKPAAECLAIVLTDLGTSLKLAGNTQEGIQKYYEALKIDPHYAPAYYNLGVVYSEMMQYDNALSCYEKAALERPMYAEAYCNMGVIYKNRGDLEMAITCYERCLAVSPNFEIAKNNMAIALTDLGTKVKLEGDVTQGVAYYKKALYYNWHYADAMYNLGVAYGEMLKFDMAIVFYELAFHFNPHCAEACNNLGVLYKDRDNLDKAVECYQMALSIKPNFAQSLNNLGVVYTVQGKMDAAASMIEKAILANPTYAEAFNNLGVLYRDAGNITMAIDAYEECLKIDPDSRNAGQNRLLAMNYINEGLDDKLFEAHRDWGWRFTRLHPQYTSWDNLKDPERPITIGYISPDFFTHSVSYFIEAPLTHHDYTKYKVVVYSAVVKADAKTYRFRDKVLKKGGVWKDIYGIDEKKIASMVREDKIDILVELTGHTANNKLGTMACRPAPVQVTWIGYPNTTGLPTVDYRITDSLADPPDTKQKQVEELVRLPDCFLCYTPSPEAGPVCPTPALSNGFVTFGSFNNLAKITPKVLQVWARILCAVPNSRLVVKCKPFCCDSIRQRFLTTLEQLGLESKRVDLLPLILFNHDHMQAYSLMDISLDTFPYAGTTTTCESLYMGVPCVTMAGSVHAHNVGVSLLTKVGLGHLVAKNEDEYVQLSVDLASDVTALSKLRMSLRDLMAGSPVCNGPSFAVGLESAYRNMWKKYCKGEVPSLRRMEMLQKEVHDDPLISKDLGPSRVSVTGEATPSLKANGSAPVPSSLPTQSPQLSKRMDSTS
B6: the oligomerisation result in “gel filtration” is reported as “no change”.
